Measurements published in US7119182 (University of California, dated 2006).
Square brackets hold non-standard residues; d marks the D form. Ends that are not written are not given here. * marks the point of attachment. 2‑Mba = 2-mercaptobenzoic acid, O=C(c1ccccc1S)*; Cha = N[C@@H](CC1CCCCC1)C(=O)O; Mpa = O=C(O)CCS

T1: human thrombin receptor (human, UniProt P25116 42-425)
T1 chain: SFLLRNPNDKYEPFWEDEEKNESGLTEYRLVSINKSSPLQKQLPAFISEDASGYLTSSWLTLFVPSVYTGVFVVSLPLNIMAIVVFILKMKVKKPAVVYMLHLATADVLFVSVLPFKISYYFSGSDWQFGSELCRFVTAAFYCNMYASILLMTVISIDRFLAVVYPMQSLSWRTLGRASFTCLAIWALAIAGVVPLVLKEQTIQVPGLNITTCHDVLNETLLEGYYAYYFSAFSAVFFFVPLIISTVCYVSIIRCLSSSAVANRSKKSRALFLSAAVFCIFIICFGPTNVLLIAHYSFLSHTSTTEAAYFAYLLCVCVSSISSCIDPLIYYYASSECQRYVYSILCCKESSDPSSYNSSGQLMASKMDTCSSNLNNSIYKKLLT

T2: mutant thrombin receptor with the amino acid substitution R41A (human, UniProt P25116 22-425, limits assumed)
T2 chain: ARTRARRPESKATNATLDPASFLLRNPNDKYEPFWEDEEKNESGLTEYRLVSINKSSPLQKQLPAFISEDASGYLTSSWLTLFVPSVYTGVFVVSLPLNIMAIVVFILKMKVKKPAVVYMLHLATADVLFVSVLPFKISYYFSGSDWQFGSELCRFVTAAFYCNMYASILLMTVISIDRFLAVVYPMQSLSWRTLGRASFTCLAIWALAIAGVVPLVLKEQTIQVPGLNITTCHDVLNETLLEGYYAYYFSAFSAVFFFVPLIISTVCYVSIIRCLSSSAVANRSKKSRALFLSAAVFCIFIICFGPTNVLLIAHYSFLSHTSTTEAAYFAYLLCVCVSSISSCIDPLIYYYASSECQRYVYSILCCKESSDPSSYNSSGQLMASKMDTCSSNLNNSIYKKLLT


Columns and labels:
Test in all cases: cell-based or functional assay
[1] = biological target: T1, human thrombin receptor
[2] = biological target: T2, mutant thrombin receptor with the amino …
[3] = biological target: T1, human thrombin receptor
[4] = biological target: thrombin (UniProt P00734 364-622; P00734 328-363)

| Binder | IC50 (50% inhibition of thrombin-induced platelet activation or aggregation) [3] [µM] | IC50, inhibition of thrombin-induced platelet ATP secretion (peptide preincubated with thrombin) [4] [µM] | further results |
| --- | --- | --- | --- |
| SFLLRNPNDKYEPF ["new amino-terminal" peptide SFLLRNPNDKYEPF] |  |  | Fold increase in 45Ca (release by oocytes expressing receptor cRNA); “SFLL” peptide 40 µM [1]: 32 fold; Fold increase in 45Ca (release by oocytes expressing receptor cRNA); “SFLL” peptide 200 µM [1]: 42 fold; Fold increase in 45Ca (release by oocytes expressing receptor cRNA); “SFLL” peptide 200 µM [2]: 53 fold |
| {2‑Mba}-F[Cha][Cha]RKPNDK-NH2 (SMILES N=C(N)NCCC[C@H](NC(=O)[C@H](CC1CCCCC1)NC(=O)[C@H](CC1CCCCC1)NC(=O)[C@H](Cc1ccccc1)NC(=O)c1ccccc1S)C(=O)N[C@@H](CCCCN)C(=O)N1CCC[C@H]1C(=O)N[C@@H](CC(N)=O)C(=O)N[C@@H](CC(=O)O)C(=O)N[C@@H](CCCCN)C(N)=O) [(2-Mba)-F(Cha)(Cha)RKPNDK-NH2] | 50 |  |  |
| LDPRPFLL |  | ~200 |  |
| LDPRPFLLRNPNDKYEPFWEDEEKNES |  | ~0.5 |  |

Continued, in another order:

| IC50 (50% inhibition of thrombin-induced platelet activation or aggregation) [3] [µM] | IC50, inhibition of thrombin-induced platelet ATP secretion (peptide preincubated with thrombin) [4] [µM] | Binder | further results |
| --- | --- | --- | --- |
| 80 |  | [Mpa]FLLRNPNDK [Mpr-FLLRNPNDK] |  |
| 108 |  | [Mpa]FLLRNPNDKYE-NH2 (SMILES CC(C)C[C@H](NC(=O)[C@H](Cc1ccccc1)NC(=O)CCS)C(=O)N[C@@H](CC(C)C)C(=O)N[C@@H](CCCNC(=N)N)C(=O)N[C@@H](CC(N)=O)C(=O)N1CCC[C@H]1C(=O)N[C@@H](CC(N)=O)C(=O)N[C@@H](CC(=O)O)C(=O)N[C@@H](CCCCN)C(=O)N[C@@H](Cc1ccc(O)cc1)C(=O)N[C@@H](CCC(=O)O)C(N)=O) [Mpr-FLLRNPNDKYE-NH2] |  |
